In PMC7102939, “N 1-Methylpseudouridine substitution enhances the performance of synthetic mRNA switches in cells”:

Legend:
MS2CP (MS2 coat protein) [1] = target: T1, MS2CP (MS2 coat protein) (bacteriophage MS2, UniProt P03612 2-130); assay: EMSA; 6 mM Mg2+, 2 mM spermidine; EMSA, 1 uM RNA, 4 C 30 min, 12% native PAGE at 4 C; 1x from 5x buffer: U1A 20 mM HEPES pH 7.5, 80 mM KCl, 20 mM NaCl, 2 mM DTT; MS2CP 40 mM HEPES pH 7.5, 10 mM; settings: protein: recombinant; tags: His; chain copies: 2; two hairpins
T1 sequence (P03612 2-130): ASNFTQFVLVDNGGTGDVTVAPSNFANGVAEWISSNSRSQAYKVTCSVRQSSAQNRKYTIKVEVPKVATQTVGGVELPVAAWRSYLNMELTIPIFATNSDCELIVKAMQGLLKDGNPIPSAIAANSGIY

MS2CP (MS2 coat protein) [2] = target: T1, MS2CP (MS2 coat protein); assay: EMSA; 6 mM Mg2+, 2 mM spermidine; affinity similar to native U; EMSA, 1 uM RNA, 4 C 30 min, 12% native PAGE at 4 C; 1x from 5x buffer: U1A 20 mM HEPES pH 7.5, 80 mM KCl, 20 mM NaCl, 2 mM DTT; MS2CP 40 mM HEPES pH 7.5, 10 mM; settings: protein: recombinant; tags: His; chain copies: 2; two hairpins

B1: 2x MS2 aptamer, native U (structured_RNA)
RNA: GGGAGCAGGUGAGGAUCACCCAUCUGCCACGAGCGAGGUGAGGAUCACCCAUCUCGCUCGUGUUCCC
B1: binds (MS2CP (MS2 coat protein) [1]).

B2: 2x MS2 aptamer, m1Ψ (structured_RNA)
RNA: GGGAGCAGGUGAGGAUCACCCAUCUGCCACGAGCGAGGUGAGGAUCACCCAUCUCGCUCGUGUUCCC
modifications: all U replaced by N1-methylpseudouridine
B2: binds (MS2CP (MS2 coat protein) [2]).
